Measured values taken from patent US20150259430A1 (MAB DISCOVERY, published 2015).
Changes are numbered by the printed parent chain. One block for each binder: values may come before it.

How the values were obtained:
[1] = target: T1, recombinant Fc chimeric conjugate of human EGFR (human, UniProt P00533 25-645); test: ELISA, coated antigen
T1 construct: extracellular domain; Coated on the ELISA plate; also called HER1; Her1
Protocol: (§1) Microtiter plates were coated with a) c-Met, IGF-1R, EGFR, HER2, and/or HER3 protein or b) EGFR, HER2, and/or HER3 (recombinant Fc chimeric conjugates of human c-Met, IGF-1R, EGFR, HER2, HER3 or IL12 Rβ1). After a blocking process, specific antibodies from B-cell supernatants bind to the targets and are then detected by a POD-labeled anti-rabbit IgG antibody. The IL12R binding was used as a counter-screen.
(§2) 12.5 μL 0.5 μg/mL protein in PBS was transferred to a microtiter plate incubated and washed 3× with Wash Buffer. 90 μL Block Buffer was added to each well, incubated and washed. 12.5 μL Standard Antibody (Anti-EGF-Receptor; HER2 Rabbit anti-Human Monoclonal (extracellular domain) (SP3) Antibody; HER3 (N-terminal) antibody; start concentration 2 μg/ml; IL-12Rbeta1 antibody start concentration 500 ng/ml) in 1:2 dilutions or sample diluted in ELISA buffer was added, incubated and washed. 12.5 μl 1:5000 POD-Antibody (Anti-rabbit IgG, peroxidase-linked species-specific Fab2 fragment (from donkey) (ECL); assay dilution: 1:5000) in Elisa Buffer was added, incubated and washed. 15 μl TMB was added and 15 μl HCl was added after sufficient development. Absorbance (Optical Density O.D.) was read at 450 nm/620 nm.

[2] = target: T2, recombinant Fc chimeric conjugate of human HER3 (human, UniProt P21860 20-643); test: ELISA, coated antigen; supernatant IgG 81.8 ng/ml
T2 construct: extracellular domain; Coated on the ELISA plate
T2 sequence (P21860 20-643, change not shown): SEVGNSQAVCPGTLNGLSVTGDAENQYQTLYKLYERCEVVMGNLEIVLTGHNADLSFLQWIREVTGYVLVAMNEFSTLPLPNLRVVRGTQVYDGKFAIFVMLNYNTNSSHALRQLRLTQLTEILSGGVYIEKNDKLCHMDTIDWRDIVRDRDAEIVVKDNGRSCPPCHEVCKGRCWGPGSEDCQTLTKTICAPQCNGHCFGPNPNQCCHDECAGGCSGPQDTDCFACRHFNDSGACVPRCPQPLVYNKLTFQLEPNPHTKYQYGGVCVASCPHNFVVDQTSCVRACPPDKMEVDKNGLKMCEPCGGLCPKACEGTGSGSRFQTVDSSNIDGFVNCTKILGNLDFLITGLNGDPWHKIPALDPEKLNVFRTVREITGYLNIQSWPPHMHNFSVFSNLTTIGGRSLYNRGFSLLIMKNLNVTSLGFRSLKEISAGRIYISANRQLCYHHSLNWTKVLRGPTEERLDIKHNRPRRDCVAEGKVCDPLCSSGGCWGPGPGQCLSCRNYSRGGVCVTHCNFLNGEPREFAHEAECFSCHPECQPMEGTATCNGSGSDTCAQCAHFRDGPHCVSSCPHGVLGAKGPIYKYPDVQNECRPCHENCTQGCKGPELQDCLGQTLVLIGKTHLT
Protocol: as §1, §2

[3] = target: T3, recombinant Fc chimeric conjugate of human HER2 (human, UniProt P04626 23-652); test: ELISA, coated antigen; supernatant IgG 81.8 ng/ml
T3 construct: extracellular domain; Coated on the ELISA plate
Protocol: as §1, §2

[4] = target: T1, recombinant Fc chimeric conjugate of …; test: ELISA, coated antigen; supernatant IgG 81.8 ng/ml
Protocol: as §1, §2

[5] = target: T2, recombinant Fc chimeric conjugate of …; test: ELISA, coated antigen; supernatant IgG 719.9 ng/ml
Protocol: as §1, §2

[6] = target: T3, recombinant Fc chimeric conjugate of …; test: ELISA, coated antigen; supernatant IgG 719.9 ng/ml
Protocol: as §1, §2

[7] = target: T1, recombinant Fc chimeric conjugate of …; test: ELISA, coated antigen; supernatant IgG 719.9 ng/ml
Protocol: as §1, §2

[8] = target: T2, recombinant Fc chimeric conjugate of …; test: ELISA, coated antigen; supernatant IgG 377.5 ng/ml
Protocol: as §1, §2

[9] = target: T3, recombinant Fc chimeric conjugate of …; test: ELISA, coated antigen; supernatant IgG 377.5 ng/ml
Protocol: as §1, §2

[10] = target: T1, recombinant Fc chimeric conjugate of …; test: ELISA, coated antigen; supernatant IgG 377.5 ng/ml
Protocol: as §1, §2

[11] = target: T2, recombinant Fc chimeric conjugate of …; test: ELISA, coated antigen; supernatant IgG 1148.9 ng/ml
Protocol: as §1, §2

[12] = target: T3, recombinant Fc chimeric conjugate of …; test: as above
Protocol: as §1, §2

[13] = target: T1, recombinant Fc chimeric conjugate of …; test: as above
Protocol: as §1, §2

[14] = target: T4, recombinant Fc chimeric conjugate of human c-Met (human, UniProt P08581 25-932); test: ELISA, coated antigen; supernatant IgG 51.60 ng/mL
T4 construct: extracellular domain; Coated on the ELISA plate
T4 sequence (P08581 25-932, change not shown): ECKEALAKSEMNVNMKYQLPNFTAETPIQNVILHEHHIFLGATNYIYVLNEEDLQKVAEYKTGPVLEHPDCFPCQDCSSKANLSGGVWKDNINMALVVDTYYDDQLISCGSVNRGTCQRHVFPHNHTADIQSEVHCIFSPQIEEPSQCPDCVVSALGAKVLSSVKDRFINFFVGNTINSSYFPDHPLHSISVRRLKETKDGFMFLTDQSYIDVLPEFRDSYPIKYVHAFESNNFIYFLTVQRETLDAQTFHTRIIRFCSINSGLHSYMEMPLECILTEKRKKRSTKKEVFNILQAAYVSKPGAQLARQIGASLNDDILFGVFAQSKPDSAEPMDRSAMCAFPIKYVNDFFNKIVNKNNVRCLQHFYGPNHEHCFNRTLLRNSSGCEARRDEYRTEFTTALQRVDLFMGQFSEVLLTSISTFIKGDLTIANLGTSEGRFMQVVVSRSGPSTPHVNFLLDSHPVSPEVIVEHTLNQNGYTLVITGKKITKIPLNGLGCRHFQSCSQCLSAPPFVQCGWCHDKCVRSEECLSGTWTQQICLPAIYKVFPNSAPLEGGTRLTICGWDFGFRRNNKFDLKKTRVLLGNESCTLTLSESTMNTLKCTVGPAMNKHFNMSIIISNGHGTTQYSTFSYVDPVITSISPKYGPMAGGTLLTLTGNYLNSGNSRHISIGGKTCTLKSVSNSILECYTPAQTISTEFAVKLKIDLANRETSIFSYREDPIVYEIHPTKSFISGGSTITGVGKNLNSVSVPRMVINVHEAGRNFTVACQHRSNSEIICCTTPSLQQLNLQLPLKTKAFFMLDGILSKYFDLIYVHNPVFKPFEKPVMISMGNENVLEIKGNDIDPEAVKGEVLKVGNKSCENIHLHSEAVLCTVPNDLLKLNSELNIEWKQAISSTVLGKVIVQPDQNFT
Protocol: as §1, §2

[15] = target: T2, recombinant Fc chimeric conjugate of …; test: ELISA, coated antigen; supernatant IgG 51.60 ng/mL
Protocol: as §1, §2

[16] = target: T3, recombinant Fc chimeric conjugate of …; test: ELISA, coated antigen; supernatant IgG 51.60 ng/mL
Protocol: as §1, §2

[17] = target: T4, recombinant Fc chimeric conjugate of …; test: ELISA, coated antigen; supernatant IgG 69.04 ng/mL
Protocol: as §1, §2

[18] = target: T2, recombinant Fc chimeric conjugate of …; test: ELISA, coated antigen; supernatant IgG 69.04 ng/mL
Protocol: as §1, §2

[19] = target: T3, recombinant Fc chimeric conjugate of …; test: ELISA, coated antigen; supernatant IgG 69.04 ng/mL
Protocol: as §1, §2

[20] = target: T5, recombinant Fc chimeric conjugate of human IGF-1R (human, UniProt P08069 31-935); test: ELISA, coated antigen
T5 construct: extracellular domain; Coated on the ELISA plate
T5 sequence (P08069 31-935, change not shown): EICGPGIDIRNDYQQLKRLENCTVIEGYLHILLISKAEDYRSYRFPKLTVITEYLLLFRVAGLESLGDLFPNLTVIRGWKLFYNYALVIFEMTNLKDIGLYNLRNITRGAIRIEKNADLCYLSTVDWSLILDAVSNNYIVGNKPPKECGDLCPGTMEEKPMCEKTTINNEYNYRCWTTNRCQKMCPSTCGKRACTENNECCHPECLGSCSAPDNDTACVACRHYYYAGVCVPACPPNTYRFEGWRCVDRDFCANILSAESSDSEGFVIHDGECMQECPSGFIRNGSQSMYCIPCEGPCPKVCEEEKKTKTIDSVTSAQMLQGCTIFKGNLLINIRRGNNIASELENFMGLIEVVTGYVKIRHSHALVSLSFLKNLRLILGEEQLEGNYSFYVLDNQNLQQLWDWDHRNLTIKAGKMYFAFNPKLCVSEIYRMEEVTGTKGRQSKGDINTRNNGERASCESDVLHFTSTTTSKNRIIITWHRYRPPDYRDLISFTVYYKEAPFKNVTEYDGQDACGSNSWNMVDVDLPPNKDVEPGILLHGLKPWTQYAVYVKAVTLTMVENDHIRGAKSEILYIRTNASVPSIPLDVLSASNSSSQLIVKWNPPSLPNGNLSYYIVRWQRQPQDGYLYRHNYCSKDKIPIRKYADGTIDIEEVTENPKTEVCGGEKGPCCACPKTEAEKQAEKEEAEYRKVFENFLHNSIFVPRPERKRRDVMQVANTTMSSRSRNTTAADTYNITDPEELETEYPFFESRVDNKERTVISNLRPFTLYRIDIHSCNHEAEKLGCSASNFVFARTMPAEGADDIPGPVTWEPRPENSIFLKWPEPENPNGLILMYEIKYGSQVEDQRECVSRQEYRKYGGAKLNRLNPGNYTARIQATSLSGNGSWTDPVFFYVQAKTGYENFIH
Protocol: as §1, §2

[21] = target: T4, recombinant Fc chimeric conjugate of …; test: ELISA, coated antigen; supernatant IgG 183.28 ng/mL
Protocol: as §1, §2

[22] = target: T2, recombinant Fc chimeric conjugate of …; test: as above
Protocol: as §1, §2

[23] = target: T3, recombinant Fc chimeric conjugate of …; test: as above
Protocol: as §1, §2

[24] = target: T1, recombinant Fc chimeric conjugate of …; test: as above
Protocol: as §1, §2

[25] = target: T2, recombinant Fc chimeric conjugate of …; test: ELISA, coated antigen; supernatant IgG 425.7 ng/ml
Protocol: as §1, §2

[26] = target: T3, recombinant Fc chimeric conjugate of …; test: ELISA, coated antigen; supernatant IgG 425.7 ng/ml
Protocol: as §1, §2

[27] = target: T1, recombinant Fc chimeric conjugate of …; test: ELISA, coated antigen; supernatant IgG 425.7 ng/ml
Protocol: as §1, §2

[28] = target: T3, recombinant Fc chimeric conjugate of …; test: ELISA, coated antigen; supernatant IgG 1500.0 ng/ml
Protocol: as §1, §2

[29] = target: T1, recombinant Fc chimeric conjugate of …; test: as above
Protocol: as §1, §2

[30] = target: T2, recombinant Fc chimeric conjugate of …; test: ELISA, coated antigen
Protocol: as §1, §2

[31] = target: T3, recombinant Fc chimeric conjugate of …; test: ELISA, coated antigen
Protocol: as §1, §2

[32] = target: T2, recombinant Fc chimeric conjugate of …; test: ELISA, coated antigen; supernatant IgG 1500.0 ng/ml
Protocol: as §1, §2

[33] = target: T3, recombinant Fc chimeric conjugate of …; test: as above; remark: listed apart in the source
Protocol: as §1, §2

[34] = target: T1, recombinant Fc chimeric conjugate of …; test: as above; remark: listed apart in the source
Protocol: as §1, §2

B2: Antibody 48 (antibody, V domains shown)
VH: QSLEESGGDLVKPGASLTLTCTASGFDLNSDYWICWVRQAPGKGLEWIACIDTGYGDIYYASWAKGRFTISKTSSTTVTLQMTSLTAADTATYFCAREIIFHFNLWGPGTLVTVSS
VL: DVVMTQTPASVSEPVGGTVTIKCQASQSIRSYLAWYQQKPGQPPKVLIYKASTLASGVSSRFKGSGSGTQFTLTISDLECADAATYYCQGGVELNNYLYNPFGGGTEVVVK
notes: rabbit IgG in B-cell supernatant
Optical density (OD) [2]: 1.1 OD
Optical density (OD) [3]: 1.2 OD
Optical density (OD) [4]: 1.2 OD

B5: Antibody 25 (antibody, V domains shown)
VH: B2 VH with T20I, S30T, D31N, T53S, S62T, T73A
VL: B2 VL with L94F, P101S
notes: as for B2
Optical density (OD) [11]: 2.6 OD
Optical density (OD) [12]: 2.4 OD
Optical density (OD) [13]: 3.3 OD

B6: Antibody 77.B08 (antibody, V domains shown)
VH: QEHLVESGGGLVQPEGSLTLTCTASGFDFSSDDMSWVRQAPGKGLEWIGVIGTGNGGTYYASWAKGRFTISKTSSTTVTLQMTSLTAADTATYFCAAFWGLWGPGTLVTVSS
VL: AQVLTQTASPVSTPVGGTVTITCQSSQSVYNNNRLAWFQQKPGQPPKLLIYTASTLASGVPSRFKGSGSGTQFTLTISDLECDDAATYYCAGGYSTDIYTFGGGTEVVVR
notes: as for B2
Optical density (OD) [14]: 0.144 OD
Optical density (OD) [15]: 0.242 OD
Optical density (OD) [16]: 0.112 OD

B7: Antibody D11 (antibody, V domains shown)
VH: B6 VH
VL: B6 VL with A8P, T13A, P14A, T22N, S28N, N31R
notes: as for B2
Optical density (OD) [17]: 0.149 OD
Optical density (OD) [18]: 1.76 OD
Optical density (OD) [19]: 0.119 OD
binding result [20]: no binding (tested: OD 0.1 or lower)

B8: Antibody B08 (antibody, V domains shown)
VH: B6 VH
VL: B6 VL with T13A, P14A, N33I, A53T, T55S, T96S
notes: as for B2
Optical density (OD) [21]: 0.7 OD
Optical density (OD) [22]: 1.14 OD
Optical density (OD) [23]: 0.402 OD
Optical density (OD) [24]: 0.405 OD

B9: Antibody 65 (antibody, V domains shown)
VH: QSVEESGGRLVTPGTPLTLTCTVSGFSLNNYYMTWVRQAPGKGLEWIGVISGSATTYYASWAKGRFTISQTSTTVDLRITSPTTEDTATYFCARSLTADIIDYYNIWGPGTLVTVSL
VL: DVVMTQTPASVSEPVGGTVTIKCQASEDINALLAWYQQKPGQPPKLLIYVASYLQSGVPSRFKGSGSGTEYTLTISGVQCADAATYYCQSAYDSSGYVGAFGGGTEVVVK
notes: as for B2
Optical density (OD) [25]: 1.9 OD
Optical density (OD) [26]: 2.9 OD
Optical density (OD) [27]: 2.5 OD

B10: Antibody 77 (antibody, V domains shown)
VH: QSVEESGGRLVTPGTPLTLTCTISGFSLNNYWMSWVRQAPGKGLEWIGIISSSDTTWYASWAKGRFTISRTSTTVDLKMTSLTTEDTATYFCARDRGDVGYSDLDLWGPGTLVTVSS
VL: AYDMTQTPASVEVAVGGTVTIKCQASQSISSYLSWYQQKPGQPPKLLIYKASTLASGVSSRFSGSGSGTEFTLTISGVQCDDAATYYCQQGYSESNLDNAFGGGTEVVVK
notes: as for B2
Optical density (OD) [28]: 2.5 OD
Optical density (OD) [29]: 1.5 OD
binding result [30]: no binding (tested: OD 0.1 or lower)

Other lines, results leading:

binding result [1]: no binding (tested: OD 0.1 or lower)
B1: Antibody 87 (antibody, V domains shown)
VH: QSVEESGGRLVTPGTPLTVTCTVSGFSLSSYVMSWVRQAPGKGLEWIGIIASSGHTYYATWAKGRFTISKTSTTVDLKITSPTTEDTATYFCARYGSDSGWGYYFTLWGPGTLVTVSS
VL: AQVLTQTPSSVSEPVGGTVTINCQASENIYSYLSWYQQKRGQPPKLLIYGASTLASGVPSRFKGSGSGTEYTLTISDLECDDAATYYCQSGYYTNSGDLAFGGGTEVVVK
notes: as for B2

Optical density (OD) [5]: 2.7 OD
Optical density (OD) [6]: 2.7 OD
Optical density (OD) [7]: 2.9 OD
B3: Antibody 37 (antibody, V domains shown)
VH: B2 VH with K12Q, G14E, A15G, T22K, F26L, L28F, N29S, D31S, I70M, I99K
VL: B2 VL with R30K, S31N, A34S, I48L, L94V
notes: as for B2

Optical density (OD) [8]: 0.6 OD
Optical density (OD) [9]: 0.4 OD
Optical density (OD) [10]: 2.5 OD
B4: Antibody 49 (antibody, V domains shown)
VH: B2 VH with D31N
VL: B2 VL with R30S, L94V
notes: as for B2

binding result [20]: no binding (tested: OD 0.1 or lower)
binding result [31]: no binding (tested: OD 0.1 or lower)
B11: Antibody D08 (antibody, V domains shown)
VH: QSLEESGGRLVTPGTPLTLTCTVSGFSLGTYWMSWVRQAPGRGLDWIGFIGSSGNGNYASWAKGRFTISRASSTTVDLKMTSLTTEDTATYFCARVKYFYYFDLWGQGTLVTVSS
VL: AQVLTQTTSPVSAAVGGTVTINCQASESVYGKKYLSWYQQKPGQPPKQLIYEASKLASGVPSRFEGSGSGTQFTLTISGVQCDDAATYYCQGEFSCSSADCTAFGGGTEVVVK
notes: as for B2

Optical density (OD) [32]: 0.8 OD
Optical density (OD) [33]: 1.8 OD
Optical density (OD) [34]: 1.1 OD
B12: Antibody 86 (antibody, V domains shown)
VH: QEQLKESGGGLVTPGGTLTLTCTVSGIDLSNYAMVWVRQAPGKGLEWIGIIYTTASTTYANWAKGRFTISKTSTTVDLKITSPTTEDTATYFCVRRSGWDGFDPWGPGTLVTVSS
VL: AQVLTQTPASVSAAVGGTVTINCQASESISSYLNWYQQKPGQPPKRLIYRTSTLASGVPSRFKGSGSGTDFTLTISGVECADAATYYCQQDWSSSDVENVFGGGTEVVVK
notes: as for B2
